Experimental data reported in patent publication US20240026036A1 (AstraZeneca / MedImmune, published 2024).

Key:
[1] = target: Recombinant human NGF (Sigma) (human, UniProt P01138 122-241); experiment: cell-based or functional assay
[2] = target: Recombinant mouse NGF (R&D Systems) (mouse, UniProt P01139 122-241); experiment: cell-based or functional assay
Recombinant mouse NGF (R&D Systems), sequence (P01139 122-241 limits assumed): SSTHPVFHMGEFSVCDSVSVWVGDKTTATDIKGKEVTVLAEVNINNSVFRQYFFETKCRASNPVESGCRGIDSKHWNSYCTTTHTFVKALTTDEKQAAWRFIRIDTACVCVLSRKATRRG

Recombinant human NGF (Sigma), sequence (P01138 122-241 limits assumed): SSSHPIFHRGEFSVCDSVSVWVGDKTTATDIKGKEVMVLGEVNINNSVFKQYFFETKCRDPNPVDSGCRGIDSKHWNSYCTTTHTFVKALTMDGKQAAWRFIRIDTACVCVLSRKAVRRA

B1: MEDI-578 IgG1 TM YTE (antibody, V domains shown)
VH: QVQLVQSGAEVKKPGSSVKVSCKASGGTFSTYGISWVRQAPGQGLEWMGGIIPIFDTGNSAQSFQGRVTITADESTSTAYMELSSLRSEDTAVYYCARSSRIYDLNPSLTAYYDMDVWGQGTMVTVSS
VL: QSVLTQPPSVSAAPGQKVTISCSGSSSNIGNNYVSWYQQLPGTAPKLLIYDNNKRPSGIPDRFSGSKSGTSATLGITGLQTGDEADYYCGTWDSSLSAWVFGGGTKLTVL
IC50 (read off the curve) [1]: ~0.8 nM | IC50 (read off the curve) [2]: ~0.3 nM
